Source: publication PMC3857803

Target: anti-METH single chain antibody fragment scFv6H4
Assay: crystal structure; apo scFv6H4, hanging drop; protein 14 mg/ml in 5 mM HEPES, 100 mM NaCl, 1 mM NaN3, pH 8.0; reservoir 1.6 M ammonium sulfate, 240 mM imidazole malate, pH 8.0; space group P2(1)3, one molecule in the asymmetric unit; trimer formed by the crystallographic 3-fold axis, with a Ni2+ ion and a sulfate on the axis

B1: anti-METH single chain antibody fragment scFv6H4 (scFv, V domains shown)
VH: EVQLQESGPSLVKPSQTLSLTCSVTGDSVTSGYWSWIRQFPGNKLDYMGYISYRGSTYYNPSLKSRISITRDTSKNQVYLQLKSVSSEDTATYYCSYFDSDDYAMEYWGQGTSVTVSG
VL: QIVLTQSPAIMSASPGEKVTLTCSASSSVSSSHLYWYQQKPGSSPKLWIYSTSNLASGVPARFSGSGSGTSYSLTISSMEAEDAASYFCHQWSSFPFTFGSGTKLEIK
Binder B1 has a stoichiometry N of 3.
